Measured values: patent publication US20250186594A1

Key:
[1] = target: IL-18 variant SEQ ID NO: 57 (E6K, C38S, K53A) (human) (UniProt Q14116)
[2] = target: Native IL-18 wild-type (SEQ ID NO: 1, native sequence) (human) (UniProt Q14116)
[3] = target: IL-18 variant SEQ ID NO: 204 (V11I, C38A, K53A, C76A, C127A) (human) (UniProt Q14116); test: cell-based or functional assay
[4] = target: IL-18 variant SEQ ID NO: 206 (V11I, C38A, K53A, S55A, C76A, C127A) (human) (UniProt Q14116); test: cell-based or functional assay
[5] = target: IL-18 variant SEQ ID NO: 207 (V11I, C38A, M51G, K53A, C76A, C127A) (human) (UniProt Q14116); test: cell-based or functional assay
[6] = target: IL-18 variant SEQ ID NO: 208 (V11I, C38A, K53A, D54A, C76A, C127A) (human) (UniProt Q14116); test: cell-based or functional assay
[7] = target: IL-18 variant SEQ ID NO: 210 (V11I, E31A, C38A, K53A, C76A, C127A) (human) (UniProt Q14116); test: cell-based or functional assay
[8] = target: IL-18 variant SEQ ID NO: 214 (V11I, D37A, C38A, K53A, C76A, C127A) (human) (UniProt Q14116); test: cell-based or functional assay
[9] = target: IL-18 variant SEQ ID NO: 216 (V11I, C38A, D40A, K53A, C76A, C127A) (human) (UniProt Q14116); test: cell-based or functional assay
[10] = target: IL-18 variant SEQ ID NO: 218 (V11I, C38A, K53A, C76A, C127A, D132A) (human) (UniProt Q14116); test: cell-based or functional assay
[11] = target: IL-18 variant SEQ ID NO: 219 (V11I, C38A, K53A, C76A, G108A, C127A) (human) (UniProt Q14116); test: cell-based or functional assay
[12] = target: IL-18 variant SEQ ID NO: 220 (V11I, C38A, K53A, C76A, H109A, C127A) (human) (UniProt Q14116); test: cell-based or functional assay
[13] = target: IL-18 variant SEQ ID NO: 222 (K8R, V11I, C38A, C76A, Q103E, C127A) (human) (UniProt Q14116); test: cell-based or functional assay
[14] = target: IL-18 variant SEQ ID NO: 224 (V11I, C38A, C76A, Q103K, C127A) (human) (UniProt Q14116); test: cell-based or functional assay
[15] = target: IL-18 variant SEQ ID NO: 28 (E6K, C38A, K53A, T63A, C76A, C127A) (human) (UniProt Q14116); test: cell-based or functional assay
[16] = target: IL-18 variant SEQ ID NO: 28 with 30 kDa PEG (E6K, C38A, K53A, T63A, C76A, C127A, C68-30kPEG) (human) (UniProt Q14116); test: cell-based or functional assay
[17] = target: IL-18 variant SEQ ID NO: 30 (E6K, V11I, C38A, K53A, T63A, C76A, C127A) (human) (UniProt Q14116); test: cell-based or functional assay
[18] = target: IL-18 variant SEQ ID NO: 4 (E6K, C38A, K53A, C68A, M86C) (human) (UniProt Q14116); test: cell-based or functional assay
[19] = target: IL-18 variant SEQ ID NO: 57 with 30 kDa PEG (E6K, C38S, K53A, C68-30kDPEG) (human) (UniProt Q14116); test: cell-based or functional assay
[20] = target: IL-18 variant SEQ ID NO: 59 (E6K, C38A, K53A) (human) (UniProt Q14116); test: cell-based or functional assay
[21] = target: IL-18 variant SEQ ID NO: 59 with 30 kDa PEG (E6K, C38A, K53A, C68-30kDPEG) (human) (UniProt Q14116); test: cell-based or functional assay
[22] = target: IL-18 variant SEQ ID NO: 6 (E6K, V11I, C38A, K53A, T63A, C68A, C76A, D98C, C127A) (human) (UniProt Q14116); test: cell-based or functional assay
[23] = target: IL-18 variant SEQ ID NO: 6 with 30 kDa PEG (E6K, V11I, C38A, K53A, T63A, C68A, C76A, C127A, D98C-30kPEG) (human) (UniProt Q14116); test: cell-based or functional assay
[24] = target: IL-18 variant SEQ ID NO: 60 (E6K, C38Q, K53A) (human) (UniProt Q14116); test: cell-based or functional assay
[25] = target: IL-18 variant SEQ ID NO: 61 with 30 kDa PEG (E6K, C38A, K53A, C76A, C68-30kPEG) (human) (UniProt Q14116); test: cell-based or functional assay
[26] = target: IL-18 variant SEQ ID NO: 62 with 30 kDa PEG (E6K, C38A, K53A, C127A, C68-30kPEG) (human) (UniProt Q14116); test: cell-based or functional assay
[27] = target: IL-18 variant SEQ ID NO: 63 (E6K, C38A, K53A, C76A, C127A) (human) (UniProt Q14116); test: cell-based or functional assay
[28] = target: IL-18 variant SEQ ID NO: 8 (E6K, V11I, C38A, K53A, T63A, C68A, C76A, T95C, C127A) (human) (UniProt Q14116); test: cell-based or functional assay
[29] = target: IL-18 variant SEQ ID NO: 9 (E6K, C38A, K53A, C68A, D98C) (human) (UniProt Q14116); test: cell-based or functional assay
[30] = target: IL-18 variant SEQ ID NO: 9 with 30 kDa PEG (E6K, C38A, K53A, C68A, D98C-30kPEG) (human) (UniProt Q14116); test: cell-based or functional assay
IL-18 variant SEQ ID NO: 9 with 30 kDa PEG (E6K, C38A, K53A, C68A, D98C-30kPEG) (human), sequence (Q14116 other isoform, or with tags, fused parts or gaps C38A K53A C68A D98C C38A K53A C68A D98C): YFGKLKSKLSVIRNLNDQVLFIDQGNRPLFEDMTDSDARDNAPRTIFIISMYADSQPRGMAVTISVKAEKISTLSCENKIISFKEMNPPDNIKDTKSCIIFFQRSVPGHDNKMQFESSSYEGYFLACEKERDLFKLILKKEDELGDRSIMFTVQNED

IL-18 variant SEQ ID NO: 57 (E6K, C38S, K53A) (human), sequence (Q14116 other isoform, or with tags, fused parts or gaps C38S K53A C38S K53A): as the sequence (Q14116 other isoform, or with tags, fused parts or gaps C38A K53A C68A D98C C38A K53A C68A D98C) above, with A38S, A68C, C98D counted along it
IL-18 variant SEQ ID NO: 57 with 30 kDa PEG (E6K, C38S, K53A, C68-30kDPEG) (human), sequence (Q14116 other isoform, or with tags, fused parts or gaps C38S K53A C38S K53A): as the sequence (Q14116 other isoform, or with tags, fused parts or gaps C38A K53A C68A D98C C38A K53A C68A D98C) above, with A38S, A68C, C98D counted along it
IL-18 variant SEQ ID NO: 218 (V11I, C38A, K53A, C76A, C127A, D132A) (human), sequence (Q14116 37-193 V47I/C74A/K89A/C112A/C163A/D168A): as the sequence (Q14116 other isoform, or with tags, fused parts or gaps C38A K53A C68A D98C C38A K53A C68A D98C) above, with K6E, V11I, A68C, C76A, C98D, C127A, D132A counted along it
IL-18 variant SEQ ID NO: 8 (E6K, V11I, C38A, K53A, T63A, C68A, C76A, T95C, C127A) (human), sequence (Q14116 other isoform, or with tags, fused parts or gaps with the stated changes): as the sequence (Q14116 other isoform, or with tags, fused parts or gaps C38A K53A C68A D98C C38A K53A C68A D98C) above, with V11I, T63A, C76A, T95C, C98D, C127A counted along it
IL-18 variant SEQ ID NO: 208 (V11I, C38A, K53A, D54A, C76A, C127A) (human), sequence (Q14116 37-193 V47I/C74A/K89A/D90A/C112A/C163A): as the sequence (Q14116 other isoform, or with tags, fused parts or gaps C38A K53A C68A D98C C38A K53A C68A D98C) above, with K6E, V11I, D54A, A68C, C76A, C98D, C127A counted along it
Native IL-18 wild-type (SEQ ID NO: 1, native sequence) (human), sequence (Q14116 37-193): as the sequence (Q14116 other isoform, or with tags, fused parts or gaps C38A K53A C68A D98C C38A K53A C68A D98C) above, with K6E, A38C, A53K, A68C, C98D counted along it
IL-18 variant SEQ ID NO: 210 (V11I, E31A, C38A, K53A, C76A, C127A) (human), sequence (Q14116 37-193 V47I/E67A/C74A/K89A/C112A/C163A): as the sequence (Q14116 other isoform, or with tags, fused parts or gaps C38A K53A C68A D98C C38A K53A C68A D98C) above, with K6E, V11I, E31A, A68C, C76A, C98D, C127A counted along it
IL-18 variant SEQ ID NO: 60 (E6K, C38Q, K53A) (human), sequence (Q14116 other isoform, or with tags, fused parts or gaps C38Q K53A C38Q K53A): as the sequence (Q14116 other isoform, or with tags, fused parts or gaps C38A K53A C68A D98C C38A K53A C68A D98C) above, with A38Q, A68C, C98D counted along it
IL-18 variant SEQ ID NO: 224 (V11I, C38A, C76A, Q103K, C127A) (human), sequence (Q14116 37-193 V47I/C74A/C112A/Q139K/C163A): as the sequence (Q14116 other isoform, or with tags, fused parts or gaps C38A K53A C68A D98C C38A K53A C68A D98C) above, with K6E, V11I, A53K, A68C, C76A, C98D, Q103K, C127A counted along it
IL-18 variant SEQ ID NO: 30 (E6K, V11I, C38A, K53A, T63A, C76A, C127A) (human), sequence (Q14116 other isoform, or with tags, fused parts or gaps with the stated changes): as the sequence (Q14116 other isoform, or with tags, fused parts or gaps C38A K53A C68A D98C C38A K53A C68A D98C) above, with V11I, T63A, A68C, C76A, C98D, C127A counted along it
IL-18 variant SEQ ID NO: 204 (V11I, C38A, K53A, C76A, C127A) (human), sequence (Q14116 37-193 V47I/C74A/K89A/C112A/C163A): as the sequence (Q14116 other isoform, or with tags, fused parts or gaps C38A K53A C68A D98C C38A K53A C68A D98C) above, with K6E, V11I, A68C, C76A, C98D, C127A counted along it
IL-18 variant SEQ ID NO: 9 (E6K, C38A, K53A, C68A, D98C) (human), sequence (Q14116 other isoform, or with tags, fused parts or gaps C38A K53A C68A D98C C38A K53A C68A D98C): as the sequence (Q14116 other isoform, or with tags, fused parts or gaps C38A K53A C68A D98C C38A K53A C68A D98C) above
IL-18 variant SEQ ID NO: 220 (V11I, C38A, K53A, C76A, H109A, C127A) (human), sequence (Q14116 37-193 V47I/C74A/K89A/C112A/H145A/C163A): as the sequence (Q14116 other isoform, or with tags, fused parts or gaps C38A K53A C68A D98C C38A K53A C68A D98C) above, with K6E, V11I, A68C, C76A, C98D, H109A, C127A counted along it
IL-18 variant SEQ ID NO: 222 (K8R, V11I, C38A, C76A, Q103E, C127A) (human), sequence (Q14116 other isoform, or with tags, fused parts or gaps V11I C38A C76A Q103E C127A V11I C38A C76A Q103E C127A): as the sequence (Q14116 other isoform, or with tags, fused parts or gaps C38A K53A C68A D98C C38A K53A C68A D98C) above, with K6E, K8R, V11I, A53K, A68C, C76A, C98D, Q103E, C127A counted along it
IL-18 variant SEQ ID NO: 216 (V11I, C38A, D40A, K53A, C76A, C127A) (human), sequence (Q14116 37-193 V47I/C74A/D76A/K89A/C112A/C163A): as the sequence (Q14116 other isoform, or with tags, fused parts or gaps C38A K53A C68A D98C C38A K53A C68A D98C) above, with K6E, V11I, D40A, A68C, C76A, C98D, C127A counted along it
IL-18 variant SEQ ID NO: 62 with 30 kDa PEG (E6K, C38A, K53A, C127A, C68-30kPEG) (human), sequence (Q14116 other isoform, or with tags, fused parts or gaps C38A K53A C127A C38A K53A C127A): as the sequence (Q14116 other isoform, or with tags, fused parts or gaps C38A K53A C68A D98C C38A K53A C68A D98C) above, with A68C, C98D, C127A counted along it
IL-18 variant SEQ ID NO: 61 with 30 kDa PEG (E6K, C38A, K53A, C76A, C68-30kPEG) (human), sequence (Q14116 other isoform, or with tags, fused parts or gaps C38A K53A C76A C38A K53A C76A): as the sequence (Q14116 other isoform, or with tags, fused parts or gaps C38A K53A C68A D98C C38A K53A C68A D98C) above, with A68C, C76A, C98D counted along it
IL-18 variant SEQ ID NO: 59 with 30 kDa PEG (E6K, C38A, K53A, C68-30kDPEG) (human), sequence (Q14116 other isoform, or with tags, fused parts or gaps C38A K53A C38A K53A): as the sequence (Q14116 other isoform, or with tags, fused parts or gaps C38A K53A C68A D98C C38A K53A C68A D98C) above, with A68C, C98D counted along it
IL-18 variant SEQ ID NO: 59 (E6K, C38A, K53A) (human), sequence (Q14116 other isoform, or with tags, fused parts or gaps C38A K53A C38A K53A): as the sequence (Q14116 other isoform, or with tags, fused parts or gaps C38A K53A C68A D98C C38A K53A C68A D98C) above, with A68C, C98D counted along it
IL-18 variant SEQ ID NO: 28 (E6K, C38A, K53A, T63A, C76A, C127A) (human), sequence (Q14116 other isoform, or with tags, fused parts or gaps C38A K53A T63A C76A C127A C38A K53A T63A C76A C127A): as the sequence (Q14116 other isoform, or with tags, fused parts or gaps C38A K53A C68A D98C C38A K53A C68A D98C) above, with T63A, A68C, C76A, C98D, C127A counted along it
IL-18 variant SEQ ID NO: 28 with 30 kDa PEG (E6K, C38A, K53A, T63A, C76A, C127A, C68-30kPEG) (human), sequence (Q14116 other isoform, or with tags, fused parts or gaps C38A K53A T63A C76A C127A C38A K53A T63A C76A C127A): as the sequence (Q14116 other isoform, or with tags, fused parts or gaps C38A K53A C68A D98C C38A K53A C68A D98C) above, with T63A, A68C, C76A, C98D, C127A counted along it
IL-18 variant SEQ ID NO: 206 (V11I, C38A, K53A, S55A, C76A, C127A) (human), sequence (Q14116 37-193 V47I/C74A/K89A/S91A/C112A/C163A): as the sequence (Q14116 other isoform, or with tags, fused parts or gaps C38A K53A C68A D98C C38A K53A C68A D98C) above, with K6E, V11I, S55A, A68C, C76A, C98D, C127A counted along it
IL-18 variant SEQ ID NO: 214 (V11I, D37A, C38A, K53A, C76A, C127A) (human), sequence (Q14116 37-193 V47I/D73A/C74A/K89A/C112A/C163A): as the sequence (Q14116 other isoform, or with tags, fused parts or gaps C38A K53A C68A D98C C38A K53A C68A D98C) above, with K6E, V11I, D37A, A68C, C76A, C98D, C127A counted along it
IL-18 variant SEQ ID NO: 4 (E6K, C38A, K53A, C68A, M86C) (human), sequence (Q14116 other isoform, or with tags, fused parts or gaps C38A K53A C68A M86C C38A K53A C68A M86C): as the sequence (Q14116 other isoform, or with tags, fused parts or gaps C38A K53A C68A D98C C38A K53A C68A D98C) above, with M86C, C98D counted along it
IL-18 variant SEQ ID NO: 219 (V11I, C38A, K53A, C76A, G108A, C127A) (human), sequence (Q14116 37-193 V47I/C74A/K89A/C112A/G144A/C163A): as the sequence (Q14116 other isoform, or with tags, fused parts or gaps C38A K53A C68A D98C C38A K53A C68A D98C) above, with K6E, V11I, A68C, C76A, C98D, G108A, C127A counted along it
IL-18 variant SEQ ID NO: 207 (V11I, C38A, M51G, K53A, C76A, C127A) (human), sequence (Q14116 37-193 V47I/C74A/M87G/K89A/C112A/C163A): as the sequence (Q14116 other isoform, or with tags, fused parts or gaps C38A K53A C68A D98C C38A K53A C68A D98C) above, with K6E, V11I, M51G, A68C, C76A, C98D, C127A counted along it
IL-18 variant SEQ ID NO: 63 (E6K, C38A, K53A, C76A, C127A) (human), sequence (Q14116 other isoform, or with tags, fused parts or gaps C38A K53A C76A C127A C38A K53A C76A C127A): as the sequence (Q14116 other isoform, or with tags, fused parts or gaps C38A K53A C68A D98C C38A K53A C68A D98C) above, with A68C, C76A, C98D, C127A counted along it

## Fc fused human IL-18BP isoform a (IL-18BPa) (from UniProt O95998 31-194) (Fc fusion)
[1]
  IC50 (read off the curve); IFNγ secretion by NK-92 cells (IFNg AlphaLISA signal, 615 nM): 200 nM
[2]
  IC50 (read off the curve); IFNγ secretion by NK-92 cells (IFNg AlphaLISA signal, 615 nM): 0.9 nM
[3]
  IC50 of IL-18BPa-Fc on IFNγ secretion, NK-92: 1.62 nM
[4]
  IC50 of IL-18BPa-Fc on IFNγ secretion, NK-92: 10.2 nM
[5]
  IC50 of IL-18BPa-Fc on IFNγ secretion, NK-92: 733 nM
[6]
  IC50 of IL-18BPa-Fc on IFNγ secretion, NK-92: 47.6 nM
[7]
  IC50 of IL-18BPa-Fc on IFNγ secretion, NK-92: 1.17 nM
[8]
  IC50 of IL-18BPa-Fc on IFNγ secretion, NK-92: 2.22 nM
[9]
  IC50 of IL-18BPa-Fc on IFNγ secretion, NK-92: 3.23 nM
[10]
  IC50 of IL-18BPa-Fc on IFNγ secretion, NK-92: 6.08 nM
[11]
  IC50 of IL-18BPa-Fc on IFNγ secretion, NK-92: 3.98 nM
[12]
  IC50 of IL-18BPa-Fc on IFNγ secretion, NK-92: 1.81 nM
[13]
  IC50 of IL-18BPa-Fc on IFNγ secretion, NK-92: 1.07 nM
[14]
  IC50 of IL-18BPa-Fc on IFNγ secretion, NK-92: 0.823 nM
[15]
  IC50 of IL-18BPa-Fc on IFNγ secretion, NK-92: 233 nM
[16]
  IC50 of IL-18BPa-Fc on IFNγ secretion, NK-92: 12.2 nM
[17]
  IC50 of IL-18BPa-Fc on IFNγ secretion, NK-92: 488 nM
[18]
  IC50 of IL-18BPa-Fc on IFNγ secretion, NK-92: 1000 nM
[19]
  IC50 of IL-18BPa-Fc on IFNγ secretion, NK-92: 11.4 nM
[20]
  IC50 of IL-18BPa-Fc on IFNγ secretion, NK-92: 654 nM
[21]
  IC50 of IL-18BPa-Fc on IFNγ secretion, NK-92: 41.8 nM
[22]
  IC50 of IL-18BPa-Fc on IFNγ secretion, NK-92: 25.3 nM
[23]
  IC50 of IL-18BPa-Fc on IFNγ secretion, NK-92: 35.5 nM
[24]
  IC50 of IL-18BPa-Fc on IFNγ secretion, NK-92: 829 nM
[25]
  IC50 of IL-18BPa-Fc on IFNγ secretion, NK-92: 4.29 nM
[26]
  IC50 of IL-18BPa-Fc on IFNγ secretion, NK-92: 4.83 nM
[27]
  IC50 of IL-18BPa-Fc on IFNγ secretion, NK-92: 286 nM
[28]
  IC50 of IL-18BPa-Fc on IFNγ secretion, NK-92: 522 nM
[29]
  IC50 of IL-18BPa-Fc on IFNγ secretion, NK-92: 1000 nM
[30]
  IC50 of IL-18BPa-Fc on IFNγ secretion, NK-92: 143 nM
